Results reported in patent US8410045B2, “Camptothecin-peptide conjugates and pharmaceutical compositions containing the same” (Drais Pharmaceuticals, Inc., priority 2006, dated 2013).
Read-outs that look alike come from different tables or passages of the source. Where a SMILES comes first, the peptide text is derived from it. The star is where a group is joined. X1 = CCc1c2c(nc3ccc(OC(=O)CCCCCN4C(=O)CC(*)C4=O)cc13)-c1cc3c(c(=O)n1C2)COC(=O)[C@]3(O)CC

Experiments:
[1] = Stability of conjugates in citrated plasma at 37° C. (half life time, HPLC fluorescence); assay type: in vitro ADME; conditions: DPV1047-linker-SN38, 2.55 μM
Method: (§1) The stability of the conjugates was tested in citrated plasma (10% (v/v) sodium citrate buffer, 0.106M) from different species (see Table 1 below). The conjugates at 2.55 μM were incubated at 37° C. in plasma. Samples were analysed using the HPLC fluorescence method described below (see chromatographic equipment and conditions) following TFA/acetonitrile extraction and the amount of free camptothecin, analogs or derivatives thereof (e.g. SN38) released by the conjugates was measured.
(§2) Chromatographic equipment and conditions: 150 μL of each sample were placed in 1.5 mL micro-centrifuge tubes. 450 μL of 5% (v/v) TFA in H2O was added to each tube and the mixture was vortexed for 5 seconds. Samples were then centrifuged at 16000 g, 3 minutes at +4° C. 100 μL of supernatant were placed in 1.5 mL micro-centrifuge tubes. Methanol (100 μL) was then immediately added and vortexed for 5 seconds. Samples were then centrifuged at 16000 g, 3 minutes at room temperature. 150 μL of supernatant were recovered for HPLC analysis. Conjugates, metabolites and camptothecin derivative (i.e. SN38) were separated by high-performance liquid chromatography (HPLC; Agilent 1100 series equipped with a fluorescence detector) using a 4.6×100 mm ([…] particle size) Luna C18(2) column (Phenomenex ref. 00D-4251-E0, Le Pecq, France). The aqueous component of the mobile phase (A) was 0.1% (v/v) TFA in water. The organic modifier (B) was acetonitrile containing 0.1% (v/v) TFA. For the conjugate and its metabolites an elution gradient increasing linearly the proportion of B from 15 to 37% in 2 min, from 37 to 47% in 6 min, followed by 2 min at 90% was applied with a constant flow rate of 1.2 mL/min. The proportion of B was then returned to the initial condition for 3.0 min.
(§3) The half life time of conjugate corresponds to the time necessary to have 50% by mole of free camptothecin, analogs or derivatives thereof released by the conjugates of the invention. In human plasma, the half life time of conjugate DPV1047-linker #1-SN38 (less than 5 mins) was shorter than that of conjugate DPV1047-linker #2-SN38 (6-7 mins), which, in turn, was shorter than that of conjugate DPV1047-linker #3-SN38 (12 mins).

[2] = as above; assay type: in vitro ADME, human; conditions: human, plasma
Method: as §1, §2, §3
(§4) As in Example II, the stability of these conjugates was tested in either human or dog plasma. Following incubation at 37° C., samples were analyzed after a TFA acetonitrile extraction by the HPLC fluorescence method described in Example II. The in vitro cytotoxicity (IC50) of these compounds was also evaluated.

[3] = Pharmacokinetic study in the dog (blood, HPLC fluorescence); assay type: in vivo; conditions: dog blood; non-toxic doses (DPV1047-BCH-SN38 ≦20 mg/kg, DPV1047-MIC-SN38 ≦50 mg/kg)
Method: Peripheral blood samples were taken at different times following infusion for pharmacokinetic analysis.
Blood samples (2.5 mL) were collected in 5 mL in trisodium citrate tubes (Sarstedt S-Monovette® 9NC) containing 2.5 mL of 5% TFA (v/v) and vortexed for 5 seconds before storage at −80° C. (for less than two weeks).
Samples were then analyzed after a TFA and acetonitrile extraction by an HPLC fluorescence method, described below. […] Whole blood samples were acidified with TFA to protect the ester link of the conjugate against hydrolysis and allow protein precipitation to improve conjugate and SN38 recovery.
Five hundred microliters of each sample were then placed in 1.5 mL micro-centrifuge tubes to and centrifuged at 16000×g 3 min at +4° C. […] Methanol (100 μL) was then immediately added and the mixture stirred vigorously (vortex) for 5 seconds. Samples were then centrifuged at 16000×g, 3 min at room temperature.
One hundred and fifty microliters of the supernatant was recovered for HPLC analysis.
DPV1047-BCH-SN38 and its metabolite SN38 were separated by high-performance liquid chromatography (HPLC Agilent 1100 with a fluorescence detector) using the following method: […]

[4] = Stability of conjugates in citrated plasma at 37° C. (half life time, HPLC fluorescence); assay type: in vitro ADME; conditions: dog
Method: as §1, §2, §3, §4

[5] = Toxicity study in the beagle dog following intravenous infusion
Method: Adult female and male beagle dogs were individually housed with free access to tap water. A pellet diet was distributed daily.
Dogs (1 dog for each drug and dose) were infused intravenously through the cephalic or saphenous vein. These intravenous infusions were made using a single-use catheter (Intraflon®) and a plastic syringe connected to a syringe pump. During the injection, the animals were restrained in a hammock.
Conjugates were dissolved in water for injection (10% of final volume) and diluted with 0.9% NaCl to their final concentration. The volume administered to each animal was adjusted according to body weight.
Clinical signs, hematological and intestinal toxicities were monitored during a period of 15 days after infusion. Each animal was checked at least twice a day for mortality or signs of morbidity.
The body weight of each animal was recorded on the day −1, 4, 10 and 13.
Peripheral blood samples were taken into EDTA tubes for the determination of following parameters on days −1, 5, 11 and 14: erythrocytes, hemoglobin, mean cell volume, packed cell volume, mean cell hemoglobin concentration, mean cell hemoglobin, thrombocytes, leucocytes, differential white cell count with cell morphology.

[6] = test system: HCT 116 human epithelial colon carcinoma cells; assay: cells; assay type: cell-based
Method: (§5) Cytotoxic evaluation was performed by seeded cells for 24 h prior to the addition of the therapeutic compound. Cells were incubated for 48 h (37° C.) with different dilutions of the therapeutic compound. Cell viability was then assessed using the WST-1 assay (Roche). The results are expressed as mean cytotoxic concentrations (IC50 value or molar concentration that inhibits 50% of cell viability) that were estimated from sigmoid regression, using Graph Pad Prism 3.02 software.
HCT 116 (ATCC #: CCL-247): human epithelial colon carcinoma cells. Cells were cultured in Mc Coy's 5a medium+1.5 mM L-glutamine and 10% fetal bovine serum. Cells were plated at a density of 8000 cells/well in 96-well plates.

[7] = test system: NCI-H460 human epithelial lung carcinoma cells; assay: In vitro cytotoxicity (WST-1 cell viability); assay type: cell-based
Method: as §5
NCI-H460 (ATCC#: HTB-177): human epithelial lung carcinoma cells. Cells were cultured in RPMI 1640+glutamax and 10% of fetal bovine serum. Cells were plated at a density of 10,000 cells/well in 96-well plates.

[8] = background statement; cited from earlier work
[9] = In vitro human serum stability study; assay type: in vitro ADME
Text: Peptidic drug delivery systems have also been described in PCT patent application published under No WO 00/01417 filed by […] aiming to facilitate the delivery of different drugs, such as the 10-Hydroxycamptothecin. This patent application describes the use of homeobox peptide derived from the Drosophila antennapedia homoprotein (preferably a cell-penetrating peptide (CPP) named penetratin) for conjugation to a number of cytotoxic drugs, thus enhancing their delivery and/or therapeutic effect. […] Consequently the applicant has performed in vitro human serum stability studies using the conjugate described in example 29 of this patent application No WO 00/01417.

CCc1c2c(nc3ccc(OC(=O)CCCCCN4C(=O)CC(SC[C@H](N)C(=O)N[C@H](C(=O)N[C@@H](CCCCN)C(=O)N[C@@H](CCCNC(=N)N)C(=O)NCC(=O)N[C@@H](CC(C)C)C(=O)N[C@@H](CCCCN)C(=O)N[C@@H](CC(C)C)C(=O)N[C@@H](CCCNC(=N)N)C(=O)N[C@@H](Cc5c[nH]cn5)C(=O)N[C@H](C(=O)N[C@@H](CCCNC(=N)N)C(=O)N5CCC[C@H]5C(=O)N[C@@H](CCCNC(=N)N)C(=O)N[C@H](C(=O)N[C@H](C(=O)N[C@@H](CCCNC(=N)N)C(=O)N[C@@H](CCSC)C(=O)N[C@@H](CC(=O)O)C(=O)N[C@H](C(=O)O)C(C)C)[C@@H](C)O)C(C)C)C(C)C)C(C)C)C4=O)cc13)-c1cc3c(c(=O)n1C2)COC(=O)[C@]3(O)CC (stereo partly shown) [DPV1047-MIC-SN38] (H-C(X1)VKRGLKLRHVRPRVTRMDV-OH)
half-life ([1]; time to 50% by mole free SN38 released, read-out: Half life time, Mouse plasma): < 3 min | half-life ([1]; monkey): 8 min | half-life ([1]; rat): 3 min | half-life ([2]; DPV1047-linker-SN38, 2.55 μM, citrated plasma, read-out: Half life time, Human plasma): 6 to 7 min | SN38 Cmax and AUC versus dose of the conjugate [3]: increased linearly with the dose | half-life ([4]; DPV1047-linker-SN38, 2.55 μM, citrated plasma, read-out: Half life time, Dog plasma): 36 min | MTD as mg equivalent of SN38 ([5]; beagle dog, i.v. infusion): 6.5-9.1 mg equivalent of SN38 | WBC depletion ([5]; dog, 70 mg/kg): 94% | signs of toxicity ([5]; dog, 70 mg/kg): gastro-intestinal toxicity, diarrhea and emesis | Reduction in WBC at D5 (%) ([5]; dog, i.v. infusion, 10 mg/kg): −44% | Toxic signs Day 1 ([5]; dog, i.v. infusion, 10 mg/kg): None | Toxic signs Following Days ([5]; dog, i.v. infusion, 10 mg/kg): None | Reduction in WBC at D5 (%) ([5]; dog, i.v. infusion, 20 mg/kg): −57% | Toxic signs Day 1 ([5]; dog, i.v. infusion, 20 mg/kg): None | Toxic signs Following Days ([5]; dog, i.v. infusion, 20 mg/kg): None | Reduction in WBC at D5 (%) ([5]; dog, i.v. infusion, 40 mg/kg): −69% | Toxic signs Day 1 ([5]; dog, i.v. infusion, 40 mg/kg): None | Toxic signs Following Days ([5]; dog, i.v. infusion, 40 mg/kg): None | Reduction in WBC at D5 (%) ([5]; dog, i.v. infusion, 50 mg/kg): −53% | Toxic signs Day 1 ([5]; dog, i.v. infusion, 50 mg/kg): None | Toxic signs Following Days ([5]; dog, i.v. infusion, 50 mg/kg): None | Reduction in WBC at D5 (%) ([5]; dog, i.v. infusion, 70 mg/kg): −94% | Toxic signs Day 1 ([5]; dog, i.v. infusion, 70 mg/kg): Vomit | Toxic signs Following Days ([5]; dog, i.v. infusion, 70 mg/kg): Liquid feces D4 | MTD ([5]; dog, in vivo, iv): 50 to 70 mg/kg | clinical signs ([5]; dogs, 10, 20, 40 and 50 mg/kg): no clinical signs

CCc1c2c(nc3ccc(O)cc13)-c1cc3c(c(=O)n1C2)COC(=O)[C@]3(O)CC [SN38, 7-ethyl-10-hydroxy-camptothecin, reference compound]
IC50 ([6]; Table 11, 48-h continuous exposure, mean of three independent experiments, read-out: Drug concentration that inhibits 50% of cell viability (IC50), HCT 116): 0.007 µM | IC50 ([7]; Table 11, 48-h continuous exposure, mean of three independent experiments, read-out: Drug concentration that inhibits 50% of cell viability (IC50), NCI-H460): 0.022 µM | solubility in water (Solubility in water): ≤ 5 µg/mL | fold more active than irinotecan as an anti-proliferative agent [8]: at least 2000 fold

CC[C@H](C)[C@H](NC(=O)[C@H](CCCCN)NC(=O)[C@@H](NC(=O)[C@H](CCC(N)=O)NC(=O)[C@H](CCCNC(=N)N)NC(=O)[C@@H](N)CSC1CC(=O)N(CCC(=O)Oc2ccc3nc4c(cc3c2)Cn2c-4cc3c(c2=O)COC(=O)[C@]3(O)CC)C1=O)[C@@H](C)CC)C(=O)N[C@@H](Cc1c[nH]c2ccccc12)C(=O)N[C@@H](Cc1ccccc1)C(=O)N[C@@H](CCC(N)=O)C(=O)N[C@@H](CC(N)=O)C(=O)N[C@@H](CCCNC(=N)N)C(=O)N[C@@H](CCCNC(=N)N)C(=O)N[C@@H](CCSC)C(=O)N[C@@H](CCCCN)C(=O)N[C@@H](Cc1c[nH]c2ccccc12)C(=O)N[C@@H](CCCCN)C(=O)N[C@@H](CCCCN)C(=O)O (stereo partly shown) [reference compound]
half life time (stability) in human serum [9]: less than three | half-life ([2]; Table 14, 10-Hydroxycamptothecin conjugates, read-out: Human Plasma Half life time): < 3 min | half-life ([4]; Table 14, 10-Hydroxycamptothecin conjugates, read-out: Dog Plasma Half life time): 6 min

CCc1c2c(nc3ccc(OC(=O)[C@H]4CC[C@H](CNC(=O)C5CCC(CN6C(=O)CC(SC[C@H](N)C(=O)N[C@@H](CCCNC(=N)N)C(=O)N[C@@H](CCC(N)=O)C(=O)N[C@H](C(=O)N[C@@H](CCCCN)C(=O)N[C@H](C(=O)N[C@@H](Cc7c[nH]c8ccccc78)C(=O)N[C@@H](Cc7ccccc7)C(=O)N[C@@H](CCC(N)=O)C(=O)N[C@@H](CC(N)=O)C(=O)N[C@@H](CCCNC(=N)N)C(=O)N[C@@H](CCCNC(=N)N)C(=O)N[C@@H](CCSC)C(=O)N[C@@H](CCCCN)C(=O)N[C@@H](Cc7c[nH]c8ccccc78)C(=O)N[C@@H](CCCCN)C(=O)N[C@@H](CCCCN)C(=O)O)[C@@H](C)CC)[C@@H](C)CC)C6=O)CC5)CC4)cc13)-c1cc3c(c(=O)n1C2)COC(=O)[C@]3(O)CC (stereo partly shown) [Penetratin-linker #5-SN38]
IC50 ([6]; 24 h): 0.057 µM | IC50 ([7]; 24 h): 0.053 µM | half-life ([2]; Table 10, SN38 conjugates, read-out: Human Plasma Half life time): 60 min | half-life ([4]; Table 10, SN38 conjugates, read-out: Dog Plasma Half life time): 150 min
